The numbers were not newly measured in publication PMC8542695, which cites them from elsewhere.

Data set [1] addresses non-muscle myosin 2A (NM2A) (Homo sapiens) (UniProt P35579).
The target of data set [2] is annexin A2 (ANXA2) (Homo sapiens) (UniProt P07355).
Another data set deals with p53 (Homo sapiens) (UniProt P04637).
Sequence of p53 (Homo sapiens) (P04637 whole entry): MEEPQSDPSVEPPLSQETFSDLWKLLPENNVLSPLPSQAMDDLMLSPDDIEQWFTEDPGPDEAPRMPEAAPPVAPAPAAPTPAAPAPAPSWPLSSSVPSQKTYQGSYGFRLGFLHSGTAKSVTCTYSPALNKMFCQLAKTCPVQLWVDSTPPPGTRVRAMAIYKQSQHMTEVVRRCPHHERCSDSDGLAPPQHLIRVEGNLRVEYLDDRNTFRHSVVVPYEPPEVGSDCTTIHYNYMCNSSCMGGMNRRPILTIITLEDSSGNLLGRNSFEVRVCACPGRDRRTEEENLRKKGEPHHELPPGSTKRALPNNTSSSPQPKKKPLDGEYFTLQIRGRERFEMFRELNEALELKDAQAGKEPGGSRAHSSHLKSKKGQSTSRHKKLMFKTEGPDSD

Sequence of S100A4 (P26447 2-101): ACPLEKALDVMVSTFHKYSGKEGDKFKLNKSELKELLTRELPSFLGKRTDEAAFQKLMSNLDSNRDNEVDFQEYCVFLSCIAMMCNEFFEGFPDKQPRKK
Sequence of annexin A2 (ANXA2) (Homo sapiens) (P07355 2-339): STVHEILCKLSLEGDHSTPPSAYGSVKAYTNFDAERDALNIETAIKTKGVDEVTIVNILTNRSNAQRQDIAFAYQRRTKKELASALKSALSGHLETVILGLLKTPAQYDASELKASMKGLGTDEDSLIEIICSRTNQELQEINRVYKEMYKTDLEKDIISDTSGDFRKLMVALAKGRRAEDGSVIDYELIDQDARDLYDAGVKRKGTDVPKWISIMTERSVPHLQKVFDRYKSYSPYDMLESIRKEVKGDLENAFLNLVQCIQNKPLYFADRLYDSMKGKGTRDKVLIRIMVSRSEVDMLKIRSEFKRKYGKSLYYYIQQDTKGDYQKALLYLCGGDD
Sequence of non-muscle myosin 2A (NM2A) (Homo sapiens) (P35579 2-1960): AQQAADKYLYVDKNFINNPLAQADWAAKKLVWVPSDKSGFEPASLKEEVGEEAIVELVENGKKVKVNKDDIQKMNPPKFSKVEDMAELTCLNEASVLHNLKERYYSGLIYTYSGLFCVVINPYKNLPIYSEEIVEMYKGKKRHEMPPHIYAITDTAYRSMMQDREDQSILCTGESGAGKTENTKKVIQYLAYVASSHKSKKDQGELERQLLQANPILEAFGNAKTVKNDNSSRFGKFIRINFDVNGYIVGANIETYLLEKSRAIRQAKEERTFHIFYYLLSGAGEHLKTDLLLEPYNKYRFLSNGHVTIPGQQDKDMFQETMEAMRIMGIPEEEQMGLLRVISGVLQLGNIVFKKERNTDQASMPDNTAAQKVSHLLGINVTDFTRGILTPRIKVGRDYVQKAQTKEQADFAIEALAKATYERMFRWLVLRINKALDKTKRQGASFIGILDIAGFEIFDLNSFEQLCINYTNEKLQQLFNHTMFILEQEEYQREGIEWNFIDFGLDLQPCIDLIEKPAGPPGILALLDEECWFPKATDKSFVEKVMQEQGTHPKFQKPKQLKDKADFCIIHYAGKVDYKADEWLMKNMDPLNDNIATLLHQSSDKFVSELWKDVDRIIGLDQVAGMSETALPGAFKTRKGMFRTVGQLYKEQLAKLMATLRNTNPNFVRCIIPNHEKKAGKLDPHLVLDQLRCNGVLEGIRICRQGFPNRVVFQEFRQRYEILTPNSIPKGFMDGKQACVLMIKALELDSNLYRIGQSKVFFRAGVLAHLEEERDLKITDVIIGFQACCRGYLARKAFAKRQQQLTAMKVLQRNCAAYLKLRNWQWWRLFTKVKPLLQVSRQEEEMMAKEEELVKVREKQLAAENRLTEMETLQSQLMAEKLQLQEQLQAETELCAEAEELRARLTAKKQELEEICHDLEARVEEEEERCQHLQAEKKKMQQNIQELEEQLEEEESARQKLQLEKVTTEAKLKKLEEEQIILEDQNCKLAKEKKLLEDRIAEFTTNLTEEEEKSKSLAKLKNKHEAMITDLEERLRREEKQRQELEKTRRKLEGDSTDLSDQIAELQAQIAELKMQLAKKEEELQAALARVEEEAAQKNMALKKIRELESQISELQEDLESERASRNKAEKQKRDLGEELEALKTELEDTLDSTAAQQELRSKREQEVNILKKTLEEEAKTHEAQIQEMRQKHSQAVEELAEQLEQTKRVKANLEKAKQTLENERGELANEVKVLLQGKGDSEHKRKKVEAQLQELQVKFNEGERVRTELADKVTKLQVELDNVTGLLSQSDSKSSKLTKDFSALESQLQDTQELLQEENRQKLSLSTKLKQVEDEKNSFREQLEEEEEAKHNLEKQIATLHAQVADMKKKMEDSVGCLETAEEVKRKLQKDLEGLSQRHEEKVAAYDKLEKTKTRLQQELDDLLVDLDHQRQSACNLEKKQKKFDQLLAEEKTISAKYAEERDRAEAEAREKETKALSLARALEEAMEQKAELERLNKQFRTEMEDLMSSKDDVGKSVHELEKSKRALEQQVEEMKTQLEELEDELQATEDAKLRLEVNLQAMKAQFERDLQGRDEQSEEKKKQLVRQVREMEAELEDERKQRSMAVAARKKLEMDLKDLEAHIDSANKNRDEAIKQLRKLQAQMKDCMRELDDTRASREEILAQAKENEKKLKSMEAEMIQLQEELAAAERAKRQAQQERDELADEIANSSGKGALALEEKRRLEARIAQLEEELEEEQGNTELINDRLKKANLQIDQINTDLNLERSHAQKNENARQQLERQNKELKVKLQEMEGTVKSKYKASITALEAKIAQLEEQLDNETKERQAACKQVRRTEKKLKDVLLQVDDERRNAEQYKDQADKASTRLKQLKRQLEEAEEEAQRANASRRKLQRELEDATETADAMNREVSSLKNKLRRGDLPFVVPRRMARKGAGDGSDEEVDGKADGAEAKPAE

Take S100A4 (from UniProt P26447): the Kd in data set [1] was under 0.001 µM; in data set [2], 2 µM; with p53 (Homo sapiens), 2 µM.

Usually Kd stands for the free concentration of one partner at which half of the binding sites on the other are occupied at equilibrium, for simple one-to-one binding.
